Experimental data from US7332279B2 (Glycozym APS, priority 1999, dated 2008).

T1: β3Gal-T2 (Homo sapiens, UniProt O43825)
T1 construct: The kinetic properties were determined with partially purified, secreted forms of the enzymes; made in house; host or cells: baculovirus; Sf9 / High Five insect cells, medium
T1 sequence (O43825 46-422 limits assumed): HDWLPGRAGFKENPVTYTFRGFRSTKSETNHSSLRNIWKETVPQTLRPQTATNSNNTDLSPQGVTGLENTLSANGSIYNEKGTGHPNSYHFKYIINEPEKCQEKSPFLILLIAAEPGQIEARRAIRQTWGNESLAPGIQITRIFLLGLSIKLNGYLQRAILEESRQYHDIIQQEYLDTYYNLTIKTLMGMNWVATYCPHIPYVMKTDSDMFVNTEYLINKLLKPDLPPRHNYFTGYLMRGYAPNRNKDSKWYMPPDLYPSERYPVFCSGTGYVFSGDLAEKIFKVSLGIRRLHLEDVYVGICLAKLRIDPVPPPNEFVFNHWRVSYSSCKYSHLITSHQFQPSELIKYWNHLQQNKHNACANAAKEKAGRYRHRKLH

T2: β3Gal-T5 (Homo sapiens, UniProt Q9Y2C3, M85T)
T2 construct: designed to exclude the hydrophobic transmembrane segment and to encode amino acid residues 25-310; secretion signal of vector pAcGP67B (gp67); made in house; host or cells: baculovirus; Sf9 cells (media) and High Five cells (serum-free medium, partially purified)
T2 sequence (Q9Y2C3 25-310 M85T): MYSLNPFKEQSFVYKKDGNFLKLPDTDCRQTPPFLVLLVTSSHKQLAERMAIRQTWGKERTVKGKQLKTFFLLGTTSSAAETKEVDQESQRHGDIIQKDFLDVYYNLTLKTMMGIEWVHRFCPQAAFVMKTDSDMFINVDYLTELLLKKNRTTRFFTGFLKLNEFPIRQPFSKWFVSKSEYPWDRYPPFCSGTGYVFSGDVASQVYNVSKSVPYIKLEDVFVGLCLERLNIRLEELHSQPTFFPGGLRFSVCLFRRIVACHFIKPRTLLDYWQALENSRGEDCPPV

T3: β3Gal-T1 (Homo sapiens, UniProt Q9Y5Z6)
T3 construct: The kinetic properties were determined with partially purified, secreted forms of the enzymes; made in house; host or cells: baculovirus; Sf9 / High Five insect cells, medium
T3 sequence (Q9Y5Z6 27-326 limits assumed): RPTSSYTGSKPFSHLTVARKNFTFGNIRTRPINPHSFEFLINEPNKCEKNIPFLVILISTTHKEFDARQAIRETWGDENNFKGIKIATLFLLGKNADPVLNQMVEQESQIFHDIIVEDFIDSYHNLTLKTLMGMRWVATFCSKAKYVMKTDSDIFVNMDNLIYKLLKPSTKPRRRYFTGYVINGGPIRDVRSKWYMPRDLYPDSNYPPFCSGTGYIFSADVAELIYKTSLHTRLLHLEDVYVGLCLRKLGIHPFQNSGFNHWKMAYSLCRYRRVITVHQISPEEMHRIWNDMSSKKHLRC

B1: Hen egg albumin: glycoprotein acceptor substrate (protein, UniProt P01012 2-386, looked up)
Ovalbumin: GSIGAASMEFCFDVFKELKVHHANENIFYCPIAIMSALAMVYLGAKDSTRTQINKVVRFDKLPGFGDSIEAQCGTSVNVHSSLRDILNQITKPNDVYSFSLASRLYAEERYPILPEYLQCVKELYRGGLEPINFQTAADQARELINSWVESQTNGIIRNVLQPSSVDSQTAMVLVNAIVFKGLWEKAFKDEDTQAMPFRVTEQESKPVQMMYQIGLFRVASMASEKMKILELPFASGTMSMLVLLPDEVSGLEQLESIINFEKLTEWTSSNVMEERKIKVYLPRMKMEEKYNLTSVLMAMGITDVFSSSANLSGISSAESLKISQAVHAAHAEINEAGREVVGSAEAGVDAASVSEEFRADHPFLFCIKHIATNAVLFFGRCVSP

Assays:
[1] = molecular target: T1, β3Gal-T2; experiment: Galactosyltransferase assay with glycoprotein acceptors, β3Gal-T2; type: biochemical; conditions: for β3Gal-T2 activity with glycoprotein acceptor: 0.5 mg glycoprotein, 150 μM UDP-Gal
Experimental: (§1) The kinetic properties were determined with partially purified, secreted forms of the enzymes. Semipurification of enzymes from serum-free medium of infected High-Five™ cells was performed by sequential Amberlite, DEAE-Sephacel and 5-Sepharose chromatography as described previously (Wandall, H. H., Hassan, H., Mirgorodskaya, E., et al. Substrate specificities of three. members of the human UDP-N-acetyl-alpha-D-galactosamine:Polypeptide Nacetylgalactosaminyltransferase family, GalNAc-T1, -T2, and -T3. J. Biol. Chem. 272:23503-23514, 1997). Comparisons of enzymes were performed relatively to the activity obtained with βGlcNAc-Bz1 (Tables II and III). Full length enzymes were assayed with 1% Triton CF54 homogenates of washed cells. Enzyme assays were performed in 50 μl total reaction mixtures containing 25 mM Cacodylate (pH 7.5), 10 mM MnCl2, 0.25% Triton X-100, 100 μM UDP-[^14C]-Gal (2,600 cpm/nmol) (Amersham), and varying concentrations of acceptor substrates (Sigma) (see Table I for structures). Reaction products were quantified by Dowex-1 chromatography. […] The transfer of Gal was evaluated after acid precipitation by filtration through Whatman GF/C glass fibre filters. […] Assays with glycolipid acceptors were conducted as previously described (Holmes, E. H. Characterization and membrane organization of beta 1-3- and beta 1-4-galactosyltransferases from human colonic adenocarcinoma cell lines Cob 205 and SW403: basis for preferential synthesis of type 1 chain lacto-series carbohydrate structures. Arch Biochem Biophys 270:630-646, 1989) in reaction mixtures containing 2.5 μmol HEPES buffer, pH 7.2, μmol MnCl2, 100 μg taurodeoxycholate or Triton CF-54, 20 μg acceptor glycolipid, 15 nmol UDP-[^14C]-galactose (13,000 cpm/nmol) and enzyme in a total volume of 100 μl. Conditions for incubation and product isolation were as previously described (Id.).

[2] = molecular target: T2, β3Gal-T5; experiment: Galactosyltransferase assay with glycoprotein acceptors, β3Gal-T5; type: biochemical; conditions: for β3Gal-T5 activity with glycoprotein acceptor: 0.5 mg glycoprotein, 150 μM UDP-Gal
Experimental: as §1

[3] = molecular target: T3, β3Gal-T1; experiment: Galactosyltransferase assay with glycoprotein acceptors, β3Gal-T1; type: biochemical; conditions: for β3Gal-T1 activity with glycoprotein acceptor: 0.5 mg glycoprotein, 150 μM UDP-Gal
Experimental: as §1

[4] = tested on: β3Gal-T activity from Colo205 cells; conditions: acceptor substrate; cited from earlier work
[5] = molecular target: T2, β3Gal-T5; experiment: Galactosyltransferase assay with glycolipid acceptors, β3Gal-T5; type: biochemical
Experimental: as §1

[6] = tested on: human colonic β3Gal-transferase activity; conditions: acceptor substrate; read-out: apparent Km, human colonic β3Gal-T activity; cited from earlier work

| Molecule | β3Gal-T2 ratio glycoprotein / β-D-GlcNAc-Bzl [1] | β3Gal-T2 activity with glycoprotein acceptor [1] | β3Gal-T5 ratio glycoprotein / β-D-GlcNAc-Bzl [2] | β3Gal-T5 activity with glycoprotein acceptor [2] | β3Gal-T1 ratio glycoprotein / β-D-GlcNAc-Bzl [3] | β3Gal-T1 activity with glycoprotein acceptor [3] | Km [4] | β3Gal-T5 activity with glycolipid acceptor, Triton CF-54 ([5]; 100 μg Triton CF-54/100 μl, 20 μg glycolipid) | β3Gal-T5 activity with glycolipid acceptor, TDOC ([5]; 100 μg taurodeoxycholate/100 μl, 20 μg glycolipid) | Km ([5]; in the presence taurodeoxycholate, based on data points at low concentrations (substrate inhibition), read-out: apparent Km of β3Gal-T5) | Km [6] |
| --- | --- | --- | --- | --- | --- | --- | --- | --- | --- | --- | --- |
| Orosomucoid: glycoprotein acceptor substrate | (0.0) | 0.0 mmol/min | (0.0) | 0.0 mmol/min | (0.0) | 0.0 mmol/min | – | – | – | – | – |
| Asialo-agalacto-fetuin: glycoprotein acceptor substrate | (1.8) | 0.07 mmol/min | (0.0) | 0.0 mmol/min | (0.3) | 0.01 mmol/min | – | – | – | – | – |
| GlcNAcβ1-3Galβ1-4Glcβ1-Cer [Lc3] | – | – | – | – | – | – | 13 µM | 3.6 µmol/h/mg | 4.4 µmol/h/mg | ~2 µM | – |
| CC(=O)N[C@H]1[C@H](O[C@H]2[C@@H](O)[C@@H](CO)O[C@@H](O[C@H]3[C@H](O)[C@@H](O)C(O)O[C@@H]3CO)[C@@H]2O)O[C@H](CO)[C@@H](O)[C@@H]1O (stereo partly drawn) [β-D-GlcNAc(1-3)-D-β-Gal(1-4)-D-β-Glc] | – | – | – | – | – | – | – | – | – | – | 2900 µM |
| Bovine submaxillary mucin | (0.0) | 0.0 mmol/min | (0.4) | 0.04 mmol/min | (0.0) | 0.0 mmol/min | – | – | – | – | – |
| B1 | (0.5) | 0.02 mmol/min | (0.0) | 0.0 mmol/min | (0.0) | 0.0 mmol/min | – | – | – | – | – |
